Test results reported in patent US20180194839A1 (Novartis, published 2018).

T1: human IL-17A (construct not stated) (human, UniProt Q16552 24-155, limits assumed)
T1 construct: also called huIL-17A; human IL-17A biotin
T1 sequence: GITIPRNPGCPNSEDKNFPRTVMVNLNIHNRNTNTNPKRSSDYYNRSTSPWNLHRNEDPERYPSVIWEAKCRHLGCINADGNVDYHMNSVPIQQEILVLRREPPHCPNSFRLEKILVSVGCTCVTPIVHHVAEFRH


What was measured:
[1] = molecular target: T1, human IL-17A (construct not stated); assay: ELISA on coated huIL-17A, crude Fab extract, wash of at least 3 h
[2] = molecular target: T1, human IL-17A (construct not stated); assay: ELISA on coated huIL-17A, crude Fab extract, overnight with 200 nM XAB1 Fab as competitor
[3] = molecular target: T1, human IL-17A (construct not stated); assay: ELISA on coated huIL-17A, crude Fab extract
[4] = molecular target: T1, human IL-17A (construct not stated); assay: ELISA titration of purified Fab on plate-coated huIL-17A, normalized signal; x axis printed as log10 of Fab concentration (M)

Off-rate ELISA (normalized to XAB1 Fab) [1]	Competition ELISA (normalized to XAB1 Fab) [2]	Classic ELISA (normalized to XAB1 Fab) [3]	EC50 (read off the curve) [4]	Binder
40.4 ratio to XAB1 Fab	51.5 ratio to XAB1 Fab	2.9 ratio to XAB1 Fab	–	MB448 (Fab, V domains shown, heavy chain C-terminal Flag tag) VH: EVQLVESGGDLVQPGGSLRLSCAASGFTFSSYWMSWVRQAPGKGLEWVANIKQDGSEKYYVDSVKGRFTISRDNAKNSLYLQMNSLRAEDTAVYYCARDRGSLYYWGQGTLVTVSS VL: AIQLTQSPSSLSASVGDRVTITCRPSQGIVWMLAWYQQKPGKAPKLLIYDASSLENGVPSRFSGSGSGTDFTLTISSLQPEDFATYYCQQFNSYPLTFGGGTKVEIK
49.8 ratio to XAB1 Fab	62.8 ratio to XAB1 Fab	2.9 ratio to XAB1 Fab	–	MB461 (Fab, V domains shown, heavy chain C-terminal Flag tag) VH: EVQLVESGGDLVQPGGSLRLSCAASGFTFSSYWMSWVRQAPGKGLEWVANIKQDGSEKYYVDSVKGRFTISRDNAKNSLYLQMNSLRAEDTAVYYCARDRGSLYYWGQGTLVTVSS VL: AIQLTQSPSSLSASVGDRVTITCRPSQGIYWTLAWYQQKPGKAPKLLIYDASSLENGVPSRFSGSGSGTDFTLTISSLQPEDFATYYCQQFNSYPLTFGGGTKVEIK
39.7 ratio to XAB1 Fab	29.3 ratio to XAB1 Fab	2.3 ratio to XAB1 Fab	–	MB433 (Fab, V domains shown, heavy chain C-terminal Flag tag) VH: EVQLVESGGDLVQPGGSLRLSCAASGFTFSSYWMSWVRQAPGKGLEWVANIKQDGSEKYYVDSVKGRFTISRDNAKNSLYLQMNSLRAEDTAVYYCARDRGSLYYWGQGTLVTVSS VL: AIQLTQSPSSLSASVGDRVTITCRPSQGIYWGLAWYQQKPGKAPKLLIYDASSLENGVPSRFSGSGSGTDFTLTISSLQPEDFATYYCQQFNSYPLTFGGGTKVEIK
58.5 ratio to XAB1 Fab	64.9 ratio to XAB1 Fab	1.9 ratio to XAB1 Fab	–	MB486 (Fab, V domains shown, heavy chain C-terminal Flag tag) VH: EVQLVESGGDLVQPGGSLRLSCAASGFTFSSYWMSWVRQAPGKGLEWVANIKQDGSEKYYVDSVKGRFTISRDNAKNSLYLQMNSLRAEDTAVYYCARDRGSLYYWGQGTLVTVSS VL: AIQLTQSPSSLSASVGDRVTITCRPSQGIWWMLAWYQQKPGKAPKLLIYDASSLENGVPSRFSGSGSGTDFTLTISSLQPEDFATYYCQQFNSYPLTFGGGTKVEIK
44.7 ratio to XAB1 Fab	44.6 ratio to XAB1 Fab	2.7 ratio to XAB1 Fab	~2 nM	MB435 (Fab, V domains shown, heavy chain C-terminal Flag tag) VH: EVQLVESGGDLVQPGGSLRLSCAASGFTFSSYWMSWVRQAPGKGLEWVANIKQDGSEKYYVDSVKGRFTISRDNAKNSLYLQMNSLRAEDTAVYYCARDRGSLYYWGQGTLVTVSS VL: AIQLTQSPSSLSASVGDRVTITCRPSQGINWELAWYQQKPGKAPKLLIYDASSLENGVPSRFSGSGSGTDFTLTISSLQPEDFATYYCQQFNSYPLTFGGGTKVEIK
47.1 ratio to XAB1 Fab	45.2 ratio to XAB1 Fab	3.1 ratio to XAB1 Fab	–	MB483 (Fab, V domains shown, heavy chain C-terminal Flag tag) VH: EVQLVESGGDLVQPGGSLRLSCAASGFTFSSYWMSWVRQAPGKGLEWVANIKQDGSEKYYVDSVKGRFTISRDNAKNSLYLQMNSLRAEDTAVYYCARDRGSLYYWGQGTLVTVSS VL: AIQLTQSPSSLSASVGDRVTITCRPSQGIFWTLAWYQQKPGKAPKLLIYDASSLENGVPSRFSGSGSGTDFTLTISSLQPEDFATYYCQQFNSYPLTFGGGTKVEIK
43.3 ratio to XAB1 Fab	46.4 ratio to XAB1 Fab	2.7 ratio to XAB1 Fab	–	MB453 (Fab, V domains shown, heavy chain C-terminal Flag tag) VH: EVQLVESGGDLVQPGGSLRLSCAASGFTFSSYWMSWVRQAPGKGLEWVANIKQDGSEKYYVDSVKGRFTISRDNAKNSLYLQMNSLRAEDTAVYYCARDRGSLYYWGQGTLVTVSS VL: AIQLTQSPSSLSASVGDRVTITCRPSQGIVFWLAWYQQKPGKAPKLLIYDASSLENGVPSRFSGSGSGTDFTLTISSLQPEDFATYYCQQFNSYPLTFGGGTKVEIK
34.7 ratio to XAB1 Fab	41 ratio to XAB1 Fab	2.7 ratio to XAB1 Fab	–	MB457 (Fab, V domains shown, 30 stays I); heavy chain C-terminal Flag tag) VH: EVQLVESGGDLVQPGGSLRLSCAASGFTFSSYWMSWVRQAPGKGLEWVANIKQDGSEKYYVDSVKGRFTISRDNAKNSLYLQMNSLRAEDTAVYYCARDRGSLYYWGQGTLVTVSS VL: AIQLTQSPSSLSASVGDRVTITCRPSQGIIWSLAWYQQKPGKAPKLLIYDASSLENGVPSRFSGSGSGTDFTLTISSLQPEDFATYYCQQFNSYPLTFGGGTKVEIK
41.5 ratio to XAB1 Fab	41.1 ratio to XAB1 Fab	2.7 ratio to XAB1 Fab	–	MB438 (Fab, V domains shown, 32 stays A); heavy chain C-terminal Flag tag) VH: EVQLVESGGDLVQPGGSLRLSCAASGFTFSSYWMSWVRQAPGKGLEWVANIKQDGSEKYYVDSVKGRFTISRDNAKNSLYLQMNSLRAEDTAVYYCARDRGSLYYWGQGTLVTVSS VL: AIQLTQSPSSLSASVGDRVTITCRPSQGIPYALAWYQQKPGKAPKLLIYDASSLENGVPSRFSGSGSGTDFTLTISSLQPEDFATYYCQQFNSYPLTFGGGTKVEIK

The next lines start with the binder.

Binder	Off-rate ELISA (normalized to XAB1 Fab) [1]	Competition ELISA (normalized to XAB1 Fab) [2]	Classic ELISA (normalized to XAB1 Fab) [3]	EC50 (read off the curve) [4]
MB454 (Fab, V domains shown, 32 stays A); heavy chain C-terminal Flag tag) VH: EVQLVESGGDLVQPGGSLRLSCAASGFTFSSYWMSWVRQAPGKGLEWVANIKQDGSEKYYVDSVKGRFTISRDNAKNSLYLQMNSLRAEDTAVYYCARDRGSLYYWGQGTLVTVSS VL: AIQLTQSPSSLSASVGDRVTITCRPSQGILWALAWYQQKPGKAPKLLIYDASSLENGVPSRFSGSGSGTDFTLTISSLQPEDFATYYCQQFNSYPLTFGGGTKVEIK	34.2 ratio to XAB1 Fab	36.6 ratio to XAB1 Fab	2.9 ratio to XAB1 Fab	–
MB432 (Fab, V domains shown, 32 stays A); heavy chain C-terminal Flag tag) VH: EVQLVESGGDLVQPGGSLRLSCAASGFTFSSYWMSWVRQAPGKGLEWVANIKQDGSEKYYVDSVKGRFTISRDNAKNSLYLQMNSLRAEDTAVYYCARDRGSLYYWGQGTLVTVSS VL: AIQLTQSPSSLSASVGDRVTITCRPSQGILFALAWYQQKPGKAPKLLIYDASSLENGVPSRFSGSGSGTDFTLTISSLQPEDFATYYCQQFNSYPLTFGGGTKVEIK	44.2 ratio to XAB1 Fab	37.3 ratio to XAB1 Fab	2.3 ratio to XAB1 Fab	–
MB458 (Fab, V domains shown, heavy chain C-terminal Flag tag) VH: EVQLVESGGDLVQPGGSLRLSCAASGFTFSSYWMSWVRQAPGKGLEWVANIKQDGSEKYYVDSVKGRFTISRDNAKNSLYLQMNSLRAEDTAVYYCARDRGSLYYWGQGTLVTVSS VL: AIQLTQSPSSLSASVGDRVTITCRPSQGIWYQLAWYQQKPGKAPKLLIYDASSLENGVPSRFSGSGSGTDFTLTISSLQPEDFATYYCQQFNSYPLTFGGGTKVEIK	33 ratio to XAB1 Fab	42.1 ratio to XAB1 Fab	2.7 ratio to XAB1 Fab	–
MB491 (Fab, V domains shown, heavy chain C-terminal Flag tag) VH: EVQLVESGGDLVQPGGSLRLSCAASGFTFSSYWMSWVRQAPGKGLEWVANIKQDGSEKYYVDSVKGRFTISRDNAKNSLYLQMNSLRAEDTAVYYCARDRGSLYYWGQGTLVTVSS VL: AIQLTQSPSSLSASVGDRVTITCRPSQGIFFWLAWYQQKPGKAPKLLIYDASSLENGVPSRFSGSGSGTDFTLTISSLQPEDFATYYCQQFNSYPLTFGGGTKVEIK	43 ratio to XAB1 Fab	44.2 ratio to XAB1 Fab	2.1 ratio to XAB1 Fab	–
MB434 (Fab, V domains shown, heavy chain C-terminal Flag tag) VH: EVQLVESGGDLVQPGGSLRLSCAASGFTFSSYWMSWVRQAPGKGLEWVANIKQDGSEKYYVDSVKGRFTISRDNAKNSLYLQMNSLRAEDTAVYYCARDRGSLYYWGQGTLVTVSS VL: AIQLTQSPSSLSASVGDRVTITCRPSQGIWWYLAWYQQKPGKAPKLLIYDASSLENGVPSRFSGSGSGTDFTLTISSLQPEDFATYYCQQFNSYPLTFGGGTKVEIK	44.4 ratio to XAB1 Fab	39.5 ratio to XAB1 Fab	2.4 ratio to XAB1 Fab	–
MB450 (Fab, V domains shown, heavy chain C-terminal Flag tag) VH: EVQLVESGGDLVQPGGSLRLSCAASGFTFSSYWMSWVRQAPGKGLEWVANIKQDGSEKYYVDSVKGRFTISRDNAKNSLYLQMNSLRAEDTAVYYCARDRGSLYYWGQGTLVTVSS VL: AIQLTQSPSSLSASVGDRVTITCRPSQGIMWWLAWYQQKPGKAPKLLIYDASSLENGVPSRFSGSGSGTDFTLTISSLQPEDFATYYCQQFNSYPLTFGGGTKVEIK	41.5 ratio to XAB1 Fab	53.3 ratio to XAB1 Fab	2.9 ratio to XAB1 Fab	–
MB456 (Fab, V domains shown, heavy chain C-terminal Flag tag) VH: EVQLVESGGDLVQPGGSLRLSCAASGFTFSSYWMSWVRQAPGKGLEWVANIKQDGSEKYYVDSVKGRFTISRDNAKNSLYLQMNSLRAEDTAVYYCARDRGSLYYWGQGTLVTVSS VL: AIQLTQSPSSLSASVGDRVTITCRPSQGILWHLAWYQQKPGKAPKLLIYDASSLENGVPSRFSGSGSGTDFTLTISSLQPEDFATYYCQQFNSYPLTFGGGTKVEIK	45.1 ratio to XAB1 Fab	46.7 ratio to XAB1 Fab	2.4 ratio to XAB1 Fab	–
MB447 (Fab, V domains shown, heavy chain C-terminal Flag tag) VH: EVQLVESGGDLVQPGGSLRLSCAASGFTFSSYWMSWVRQAPGKGLEWVANIKQDGSEKYYVDSVKGRFTISRDNAKNSLYLQMNSLRAEDTAVYYCARDRGSLYYWGQGTLVTVSS VL: AIQLTQSPSSLSASVGDRVTITCRPSQGIFWWLAWYQQKPGKAPKLLIYDASSLENGVPSRFSGSGSGTDFTLTISSLQPEDFATYYCQQFNSYPLTFGGGTKVEIK	45.5 ratio to XAB1 Fab	57 ratio to XAB1 Fab	3 ratio to XAB1 Fab	–
